Consider two molecules from article PMC11098746 (2024).

Test in all cases: AVEXIS screen signal:noise (double-corrected)
One assay concerns the target ADP363.
A further assay concerns the target T1, ADP276.
T1 chain: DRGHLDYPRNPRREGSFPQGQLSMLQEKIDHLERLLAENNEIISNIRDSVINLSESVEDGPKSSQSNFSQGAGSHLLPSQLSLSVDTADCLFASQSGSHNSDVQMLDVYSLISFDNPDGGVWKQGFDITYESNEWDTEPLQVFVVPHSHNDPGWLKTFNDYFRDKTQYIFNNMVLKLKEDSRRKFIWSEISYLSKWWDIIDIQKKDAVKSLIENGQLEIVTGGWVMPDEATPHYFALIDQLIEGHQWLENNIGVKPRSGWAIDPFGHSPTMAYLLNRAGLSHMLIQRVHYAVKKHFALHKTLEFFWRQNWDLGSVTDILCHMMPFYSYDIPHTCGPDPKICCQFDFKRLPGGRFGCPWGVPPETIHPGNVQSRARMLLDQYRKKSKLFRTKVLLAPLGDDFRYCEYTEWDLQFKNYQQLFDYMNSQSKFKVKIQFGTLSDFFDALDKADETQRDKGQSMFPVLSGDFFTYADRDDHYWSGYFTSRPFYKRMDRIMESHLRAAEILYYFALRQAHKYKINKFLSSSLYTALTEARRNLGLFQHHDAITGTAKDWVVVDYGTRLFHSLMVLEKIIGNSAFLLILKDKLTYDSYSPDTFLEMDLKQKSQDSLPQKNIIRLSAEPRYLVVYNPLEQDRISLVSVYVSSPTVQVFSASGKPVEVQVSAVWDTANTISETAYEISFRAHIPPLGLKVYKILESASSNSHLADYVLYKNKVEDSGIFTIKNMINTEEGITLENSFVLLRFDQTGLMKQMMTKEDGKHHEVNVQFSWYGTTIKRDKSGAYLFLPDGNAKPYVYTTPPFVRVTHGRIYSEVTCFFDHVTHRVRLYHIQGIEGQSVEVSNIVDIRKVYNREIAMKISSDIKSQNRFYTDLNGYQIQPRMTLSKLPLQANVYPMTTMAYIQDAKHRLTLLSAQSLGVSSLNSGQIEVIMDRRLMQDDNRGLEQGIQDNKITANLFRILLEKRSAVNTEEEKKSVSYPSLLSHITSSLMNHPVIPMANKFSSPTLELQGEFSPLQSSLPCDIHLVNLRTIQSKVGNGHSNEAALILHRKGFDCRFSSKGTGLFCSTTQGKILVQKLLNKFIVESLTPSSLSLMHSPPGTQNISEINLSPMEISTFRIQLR

The next assay deals with T2, ADP317.
T2 chain: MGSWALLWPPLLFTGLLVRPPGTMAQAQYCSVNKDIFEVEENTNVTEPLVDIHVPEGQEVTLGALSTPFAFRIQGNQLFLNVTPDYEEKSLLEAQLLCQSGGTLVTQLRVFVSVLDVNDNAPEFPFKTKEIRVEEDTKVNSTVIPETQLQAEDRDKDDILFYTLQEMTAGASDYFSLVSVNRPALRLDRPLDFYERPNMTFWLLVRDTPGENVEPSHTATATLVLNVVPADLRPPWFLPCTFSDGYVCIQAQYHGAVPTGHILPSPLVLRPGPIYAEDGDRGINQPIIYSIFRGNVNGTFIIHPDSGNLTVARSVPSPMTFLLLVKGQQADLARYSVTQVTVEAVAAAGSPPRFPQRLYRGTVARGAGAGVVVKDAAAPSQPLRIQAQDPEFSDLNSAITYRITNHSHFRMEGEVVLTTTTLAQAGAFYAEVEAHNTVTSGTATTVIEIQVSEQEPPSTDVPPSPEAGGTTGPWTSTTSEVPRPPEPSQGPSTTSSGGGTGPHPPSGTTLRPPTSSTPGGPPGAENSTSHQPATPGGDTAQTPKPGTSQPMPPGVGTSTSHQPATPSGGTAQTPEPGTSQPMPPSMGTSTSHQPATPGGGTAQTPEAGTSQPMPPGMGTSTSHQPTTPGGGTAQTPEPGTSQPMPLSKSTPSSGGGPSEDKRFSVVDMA

The target in the next assay is T3, ADP141.
T3 chain: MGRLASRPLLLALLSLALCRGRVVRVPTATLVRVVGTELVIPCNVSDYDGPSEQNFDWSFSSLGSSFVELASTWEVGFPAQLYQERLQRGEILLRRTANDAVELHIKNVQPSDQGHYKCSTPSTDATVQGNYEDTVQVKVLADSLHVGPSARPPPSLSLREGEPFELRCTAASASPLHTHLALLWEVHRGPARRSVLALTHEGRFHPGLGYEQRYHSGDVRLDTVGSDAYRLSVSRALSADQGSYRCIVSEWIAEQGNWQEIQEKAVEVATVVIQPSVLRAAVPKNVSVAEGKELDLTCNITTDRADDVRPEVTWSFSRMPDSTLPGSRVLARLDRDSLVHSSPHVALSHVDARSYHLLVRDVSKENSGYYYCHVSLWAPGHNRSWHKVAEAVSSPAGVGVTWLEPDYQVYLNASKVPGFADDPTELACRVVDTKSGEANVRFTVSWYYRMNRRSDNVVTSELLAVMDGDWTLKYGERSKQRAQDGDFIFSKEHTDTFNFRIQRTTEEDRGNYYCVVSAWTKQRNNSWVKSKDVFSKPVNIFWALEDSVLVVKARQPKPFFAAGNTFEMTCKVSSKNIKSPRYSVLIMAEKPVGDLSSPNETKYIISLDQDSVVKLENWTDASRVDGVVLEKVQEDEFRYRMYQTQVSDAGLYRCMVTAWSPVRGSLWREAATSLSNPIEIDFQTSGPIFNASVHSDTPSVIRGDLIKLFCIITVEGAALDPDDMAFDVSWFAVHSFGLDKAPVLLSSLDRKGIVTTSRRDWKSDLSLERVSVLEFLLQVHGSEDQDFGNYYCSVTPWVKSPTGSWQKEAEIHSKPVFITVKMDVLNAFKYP

B1: ADP168 (protein)
chain: NNIKLNDKENINFESYFNKRTNEENVLNKNVAKEMGDTFVAHKAIELNINHHHVNNDKEFNNNNNNKHQPYYHNEHDKKFSESLKAHMDHLKILNNDLKQHIDKKERNEIYENNDLKKYIIKEIQNNKYLNKEKKSSEDIQILEEHSKKLQKEIHEWLESVNNIEEKSNILKNIKSQLLNNIASLNHALSEEIKNINDIKELQKQQNDLFSENWLYFLPSSSDYLLNEKKKNLYDNQDNSMKDDINNNDKYNIFNYLQNVQDKDNQYEVMKQDNNNIHSGSS
modifications: bait human Fc-tagged dimer; N-glycosylation sequons mutated in Plasmodium baits
Regarding B1, the binding score in the assay with ADP363 is 198; with ADP276, 5.43.

B2: ADP227 (protein)
chain: LKVPIENAPFVFNKKENDIKYFLDKETPDDFLSNNAYSLDITLENFPNPFFHPSLCNRYGFKFSYICDPNKILSRNIADQIEEILNYQRRNSKHFCVDKEVPYVLGVALINKLPYGISADTFASQIFEYWKLSNKDCNDGVLLFFVKEDTHFILKWKKGAQSIINFRTATSMNKAFNQYLRKYSLEYSILSAVKLTSQYLTEEIIPPTQTAQK
modifications: bait human Fc-tagged dimer; N-glycosylation sequons mutated in Plasmodium baits
Turning to B2, the binding score in the assay with ADP317 was determined as 5.21; with ADP141, 6.72.
